What was measured:
[1] = biological target: human interleukin-6 (Homo sapiens) (UniProt P05231); experiment: solution affinity (radiolabel, ZORBAX resin capture); settings: SB17T: 40 mM HEPES pH 7.5, 102 mM NaCl, 5 mM KCl, 5 mM MgCl2, 1 mM EDTA, 0.05% Tween 20, 37 C
[2] = biological target: human interleukin-6 (Homo sapiens) (UniProt P05231); experiment: SPR; settings: 2'-OMe at C3,G6,A16,A19,C20,C28; Bn-dU9 to Pe-dU; Bn-dU12 to Nap-dU; other dT Bn-dU; SB17T: 40 mM HEPES pH 7.5, 102 mM NaCl, 5 mM KCl, 5 mM MgCl2, 1 mM EDTA, 0.05% Tween 20, 37 C

human interleukin-6 (Homo sapiens), sequence (P05231 30-212): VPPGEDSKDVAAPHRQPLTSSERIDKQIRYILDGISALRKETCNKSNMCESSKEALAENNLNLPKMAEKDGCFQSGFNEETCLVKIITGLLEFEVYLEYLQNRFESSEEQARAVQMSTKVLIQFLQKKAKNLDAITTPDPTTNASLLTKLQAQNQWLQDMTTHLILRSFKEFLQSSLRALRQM

Sequence “GGCAGGUUUGGUAUUAACACGUUAAGUCGUGG [SL1023]” has a Kd ([1]; Bn-dU replaces dT) of 1 nM.

“GGCAGGUUUGGUAUUAACACGUUAAGUCGUGG [SL1025]” was tested, and the Kd [2] was 0.23 nM and the Kd ([1]; 2'-OMe at C3,G6,A16,A19,C20,C28, Bn-dU9 to Pe-dU, Bn-dU12 to Nap-dU, other dT Bn-dU) was 0.16 nM.

“GGGGUUAUGUAGCGAGUGCGUAAGGCGGUGGGCGAGGGA [SL1030]” showed a binding signal (fold weaker than SL1032) ([1]; Nap-dU replaces dT) of 10.

From article PMC3961692
